The source of these data is PMC7948415.

The target of this experiment is alternative C3 convertase, C3bBb (human) (UniProt P01024).

B1: SG7.AF (natural protein)
chain: ARKHVQELLKTFRRIDFDETRKSVYLQSAKFGVQSQLREPLTKKVLNYWDDVKLSKTCLDRMVTKVNDVKETFYAGFSYACESHNQYSVDCLEAAKPSYLTALGEIRGETEKCLTTRLK
In turn, B1 showed an IC50 of inhibition of AP-mediated hemolysis of rabbit erythrocytes, properdin-depleted serum against normal human serum of 6 fold.
